Test results from the nanobody polyreactivity screen of Harvey et al. (2022).

assay: yeast display, Sf9 membrane polyspecificity reagent, FACS + sequencing; frameworks hold sequencing errors
Summary of the method: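 Using colony PCR, genes from sorted yeast display clones were amplified, then sequenced on MiSeq at 2 × 250 and filtered by CDR length. The clones had been stained with 10% biotinylated, detergent-solubilized Sf9 membrane reagent for 1 hour at 4 °C and sorted by FACS into low and high (top ~1%) gates on anti-HA and streptavidin fluorescence. Polyreactivity labels come from the gate of origin.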

| Sequence | polyreactivity (PSR sort gate) |
| --- | --- |
| QVQLVESGGGLVQAGGSLRLSCAASGYIFRYYAMGWYRQAPGKERELVAVISSTGTSTYYADSVKGRFTISRDNAKNTVYLQMNSLKPEDTAVYYCAVKGYFSYWRYQSDYWGQGTQVTVSS | high polyreactivity |
| QVQLVESGGGLVQAGGSLRLSCAASGYIFRYYVMGWYRQEPGKERELVAAITFSGGNTYYADSVKGRFTISRDNAKITVYLQMNSLKPEDTAVYYCAADVLYVGGSDYDYWVQGTQVTVSS | low polyreactivity |
| QVQLVESGGGLVQAGGSLRLSCAASGYIFSAYAMGWSRQAPGKERELVAVITSGGGTYYADSVKGRFTISRDNAKNTVYLLMNSLKTEDTAVYYCAAGPLCPYASRYGYWGQGTQVTVSS | high polyreactivity |
| QVQLVESGGGLVQAGGSLRLSCAASGYIFSDNTMGWYRPAPGKERELVAVITSGTSTSYADSVKGRFTISRDNAKNTVYLQMNSLKPEDTAVYDCARESVTYFWYYTPEVDYWGQGTQVTVSS | low polyreactivity |
| QVQLVESGGGLVQAGGSLRLSCAASGYIFSGYARGWYRKAPGKERELVAAISSNGGSTYYADSVKGRFTISRDNANNTVYVQMNSLKPEDTAVYYCNRGLAARVGRGDYWGQGTQVTVSS | low polyreactivity |
| QVQLVESGGGLVQAGGSLRLSCAASGYIFSRYAMGWYRQAPGKERELVAAITRSGTRTYYADSVKGRFTISRDNAKNTVYLQMNSLKPEDTAVYYCAKEYLYSSGFDYWGQGTQVTVSS | high polyreactivity |
| QVQLVESGGGLVQAGGSLRLSCAASGYIFTSYATMGWYRQAPGKERELVATISSGGSTNYADSVKGRVTISRDNAKNTVYLQMNSLKPEDTAVYYCYADRFYTYWGYSWVYPSGSWGQGTQVTVSS | low polyreactivity |
| QVQLVESGGGLVQAGGSLRLSCAASGYIFTYYAMGWYRQAPGKERELVAAISRGGSTYYADSVKGRFTISRDNAKYTVYLQMNSLKPEDTAVYYCNARPRWPWVVNFGYYYWGQGTQVTVSS | low polyreactivity |
| QVQLVESGGGLVQAGGSLRLSCAASGYIFVNAMGWYRQAPGKERELVAAISSGRSTHYADSVKGRFTISLDNAKNTVYLQLNSLKPEDTAVYYCNADLYSWYWAGYNYWGQGTQVTVSS | high polyreactivity |
| QVQLVESGGGLVQAGGSLRLSCAASGYIFVRNAMGWSRQAPGKERELVAAISRTDGTTYYADSVKGRFTISRDNAKNTVYLQMNSLIPEDTAVYYCAADYLRAPYYQYEYWGQGTQVTVSS | low polyreactivity |
| QVQLVESGGGLVQAGGSLRLSCAASGYIFVVNAMGWYRQAPGKERELVAAIDWGGGSTYADSVKGRFTISRDNAKNTVYLQMNSLKPEDTAVYYCAADLWPYPNDYWGQGTQVTVSS | low polyreactivity |
| QVQLVESGGGLVQAGGSLRLSCAASGYIFWFNAMGWYRQAPGKERELVAAITSSDASTNYADSVKGRFTISRDNAKNTVYLQMNSLKPEDTAVYYCAKSSYPRDGYESWGQGTQVTVSS | low polyreactivity |
| QVQLVESGGGLVQAGGSLRLSCAASGYIFWINAMGWYRHAPGKERDLVAAIRYSTGRTYYADSVKGRFTISRDNAKNTVYLQMNSLKPEDTAVYYCNARSWYIRGSQEYYYWGQGTQVTVSS | high polyreactivity |
| QVQLVESGGGLVQAGGSLRLSCAASGYIFYAYAMGWYRQAPGKERELVAAISSGGGRTYYADSVKGRFTISRDNAKNTVYLQMNSLKPEDTAVYYCAARRRDRGEYYYWGQGTQVTVSS | high polyreactivity |
| QVQLVESGGGLVQAGGSLRLSCAASGYIFYDYAMGWYRQAPGKERELVAAIRRSTGTTYYADSVKGRFTISRDNAKNTVYLQMNSLKPEDTAFYYCAALFRPRVHRYDYWGQGTQVTVSS | low polyreactivity |
| QVQLVESGGGLVQAGGSLRLSCAASGYIFYFNAMGWYRQAPGKERELVAAISSRGTGTYADSVKGRFTISRDNAKNTVYLQMNSLKPEDTAVYYCNAYPSIYPGFYKTFFNMDYWGQGTQVTVSS | low polyreactivity |
| QVQLVESGGGLVQAGGSLRLSCAASGYIFYFNAMGWYRQAPGKERELVAVISDRDDSTYYADSVKGRFTISRDNAKNTVYLQMNSLKPEDTAVYYCAADGDTYVDDPYDYWGQGTQVTVSS | low polyreactivity |
| QVQLVESGGGLVQAGGSLRLSCAASGYIFYGYAMGWYRQAPGKERELVAAITGDGASTNYADSVKGRFTISRDNAKNTVYLQMNSLKPEDTAVYYCNAGRESDDVYEGSQRIGQFDYWGQGTQVTVSS | low polyreactivity |
| QVQLVESGGGLVQAGGSLRLSCAASGYIFYPYTMGWYRPAPGKERELVAAITRSGSSTYYADSVKGRFTISRDNAKNTVYLQMNSLKPEDTAVYYCAAQRVNWYLSPSLYYYWGQGTQVTVSS | high polyreactivity |
| QVQLVESGGGLVQAGGSLRLSCAASGYIFYRNAMGWYRQAPGKEREFVAAISSSGVSTYYADSVKGRFTISRDNAKNTVYLQMNSLKPEDTAVYYCAASYLTWKRRYDYWGQGTQVTVSS | high polyreactivity |
| QVQLVESGGGLVQAGGSLRLSCAASGYIFYYNTMGWYRQAPGKERELVAAISSAGSTNYADSVKGRFTISRDNAKNTVYLQMNSRKPEDTAVYYCAARTRFSYRRNSYGYWGQGTQVNVSS | high polyreactivity |
| QVQLVESGGGLVQAGGSLRLSCAASGYIIGGNAMGWYRQAPAKERELVAVISSRGGRTYYADSVKGRFTISRDNAKNTVSLQMNSQKPEDTAVYDCASIRYRGARGSGDKIFYYWGQGTQVTVSS | high polyreactivity |
| QVQLVESGGGLVQAGGSLRLSCAASGYILWNAMGCYRQAPGKDRELVAAISSGGSTNYADSVKGRFTISRDNAKNTVYLQMNSLKPEDTAVYYCNTDRFWPSDYWGQGTQVTVSS | low polyreactivity |
| QVQLVESGGGLVQAGGSLRLSCAASGYILYPYAMGWYRQAPGKERELVAAIRQRGGSTYYADSVKGRFTISRDNAKNTVYLQMNSLKPEDTAVYYCAAYLSPKRALTRGYGYWGQGTQVTVSS | high polyreactivity |
| QVQLVESGGGLVQAGGSLRLSCAASGYIYIVYSMGWYRQAPVKERELVAAISSGGITDYADSVKGRFTISRDNAKNTVYLQMNSLKPEDTAVYYWGQGTQVTVSA | low polyreactivity |
| QVQLVESGGGLVQAGGSLRLSCAASGYNFGVYAMGWYRQAPRKERELVARITSGGSTNYADSVKGRFTISRDNAKITVYLQMNSLKPEDTAVYYCAAAVGNTDREYDYWGQGTQVTVSS | low polyreactivity |
| QVQLVESGGGLVQAGGSLRLSCAASGYNFVRNAMGWYRQAPGKERELVAAISGSGGSTYYADSVKGRFTISRDNAKNTVYLQMNSLKPEDTAVYYCAADYATVTWRGIAYDYWGQGTQVTVSS | low polyreactivity |
| QVQLVESGGGLVQAGGSLRLSCAASGYSFYINVMGWYIQAPGKERELLAAISISGDSTYYSDSVKGRFTISRDNAKNTVYLQMNSLKPDDTALYYCAADTVSSWYYPLEDEYWGQGTQVTVSS | high polyreactivity |
| QVQLVESGGGLVQAGGSLRLSCAASGYTFDAYAMGWYRQAHGKERELVAAINYSGGSTYADSVKGRFTISRDNAKNTVYLQMNSLKPEDTAVYYCATRLYGYWPNGFDYWGQGTQVTVSS | low polyreactivity |
| QVQLVESGGGLVQAGGSLRLSCAASGYTFDTNALGWYRLAPGTEREFVAAISSTGGTYYADSVKGRFTISRDNAKNTVYLQMNSLKPEDTAVYYCAATFIQVVVIVQLYDYDYWRQGTQVTVSS | low polyreactivity |
